# Reference: patent publication US6127178A, “Apoptotic peptides” (The Regents of the University of California, priority 1998, dated 2000)
# Entries after “also recorded” stand apart in the source; their conditions may differ.
# B1: Id2: full-length Id2 helix-loop-helix protein expressed from transfected cDNA (pMAMNeo dex-inducible or tet-regulated vector) (protein, UniProt Q02363 1-134, looked up)
# chain: MKAFSPVRSVRKNSLSDHSLGISRSKTPVDDPMSLLYNMNDCYSKLKELVPSIPQNKKVSKMEILQHVIDYILDLQIALDSHPTIVSLHHQRPGQNQASRTPLTTLNTDISILSLQASEFPSELMSNDSKALCG
# modifications: full-length
# B2: Id3: Id family helix-loop-helix protein expressed in 32D.3 cells from pMAMNeo (protein, UniProt P41133 1-119, looked up)
# DNA-binding protein inhibitor …: MKALSPVRGCYEAVCCLSERSLAIARGRGKSPSTEEPLSLLDDMNHCYSRLRELVPGVPRGTQLSQVEILQRVIDYILDLQVVLAEPAPGPPDGPHLPIQTAELTPELVISKDKRSFCH
# Experiments:
# 32D.3 myeloid cells [1] = test: Apoptosis (TUNEL) assay in 32D.3 transfectants; type: cell-based, mouse; conditions: following IL-3 withdrawal, dex-induced expression
# Description: cDNA constructs and establishment of cell lines. The mouse 32D.3 myeloid cell line was maintained in RPMI 1640 medium (GIBCO) supplemented with 10% fetal calf serum and 20U of IL-3 per ml as previously described (3, 12). The human IdI, Id2 and Id3 cDNAs (5, 6, 11) were introduced into the pMAM-Neo expression plasmid (Clontech, Palo Alto, Calif.) at the Xhol site. Mutations in Id2 and Id3 were generated by the polymerase chain reaction. To prepare an N-terminus deletion mutant, a 0.3 kb SalI-XhoI fragment lacking the region encoding amino acids 1-34 was inserted into the pMAM vector. A C-terminally truncated Id2 was prepared by removing a SmaI fragment containing cDNA corresponding to amino acids 93-135. Id2ΔHLH was prepared as previously described (34) and subcloned into the pMAM vector at the XhoI site. The primary structure of all mutants was confirmed by DNA sequencing. 32D.3 cells were electroporated as previously described with 10 μg of linearized plasmid DNA (12). […]
# Expression of Id genes and immunoblot analysis. […] The expression of Bax proteins was monitored using a rabbit anti-Bax polyclonal sc-930 (Santa Cruz Biotechnology, Santa Cruz, Calif.). […]
# Viability and apoptosis assays. […] The number of viable cells was determined at various times after IL-3 withdrawal by trypan blue dye exclusion. […]
# 32D.3 myeloid cells [2] = test: FACS analysis of subdiploid population in 32D.3 transfectants; type: cell-based, mouse; conditions: following IL-3 removal
# Experimental: Id2 enhances apoptosis in 32D.3 myeloid cells following IL-3 withdrawal. Since Id2 levels in 32D.3 cells increased in association with IL-3 withdrawal, we examined the effect of increasing Id2 expression on the apoptotic response of these cells. 32D.3 myeloid progenitor cells were transfected with the dexamethasone (dex)-inducible pMAMNeo expression vector containing a full-length Id2 cDNA. The expression of Id2 in clones and pools of transfectants was determined in immunoblots, and we observed a 3-4 fold increase in Id2 protein levels upon treatment of the cells with dex for 16 hours as compared to cells transfected with vector DNA or with a pMAMNeo recombinant plasmid with Id2 in the antisense orientation.
# 32D.3 myeloid cells [3] = test: Viability by trypan blue dye exclusion in 32D.3 transfectants; type: cell-based, mouse; conditions: for rates of cell death: following withdrawal of IL-3, relative to control cells
# Description: cDNA constructs and establishment of cell lines. The mouse 32D.3 myeloid cell line was maintained in RPMI 1640 medium (GIBCO) supplemented with 10% fetal calf serum and 20U of IL-3 per ml as previously described (3, 12). The human IdI, Id2 and Id3 cDNAs (5, 6, 11) were introduced into the pMAM-Neo expression plasmid (Clontech, Palo Alto, Calif.) at the Xhol site. Mutations in Id2 and Id3 were generated by the polymerase chain reaction. To prepare an N-terminus deletion mutant, a 0.3 kb SalI-XhoI fragment lacking the region encoding amino acids 1-34 was inserted into the pMAM vector. A C-terminally truncated Id2 was prepared by removing a SmaI fragment containing cDNA corresponding to amino acids 93-135. Id2ΔHLH was prepared as previously described (34) and subcloned into the pMAM vector at the XhoI site. The primary structure of all mutants was confirmed by DNA sequencing. 32D.3 cells were electroporated as previously described with 10 μg of linearized plasmid DNA (12). Transfected cells were selected in medium containing 0.4/mg/ml G418 and single cell clones were isolated by limiting dilution, as well as pools of transfectants. To prepare additional cultures, drug-resistant clones and pools of clones were prepared by transfecting cells with pMAMNeo DNA alone and pMAMNeo containing Id2 cDNAs in the antisense orientation. 32D.3 cells were grown in suspension and maintained at equivalent exponential growth phases by seeding at 1×10^5 cells per ml culture medium. All subsequent analyses were performed using cells harvested at 0.5-1×10^6 cells per ml.
# Viability and apoptosis assays. To investigate the effects of Id gene expression upon viability, cells growing exponentially in the presence of IL-3 (20 U/ml) were treated with dexamethasone for 16 hours. The cells were collected by centrifugation at 200×g for 10 min, washed twice in PBS, and resuspended in RPMI medium with 10% fetal bovine serum without IL-3. The number of viable cells was determined at various times after IL-3 withdrawal by trypan blue dye exclusion. […]
# U20S osteosarcoma cells = test: DNA content by flow cytometry in tet-regulated U20S transfectants; type: cell-based; conditions: clone 9, four days after removal of tetracycline (1000 ng/ml), in serum
# Experimental: To prepare a recombinant expression construct encoding Id2 which could be regulated by the addition of tetracycline to the culture media, the Kpn1/HindIII filled-in fragment of Id2 cDNA was inserted into the pUHD 10-3 vector (26) at EcoRI blunt-ended sites to prepare a tTA-responsive Id2 expression vector. DNA from pUHD-10-3Id2 was used in addition to DNA from pTet-TAk (GIBCO), encoding the tetracycline-regulatable tTA protein. Stable transfectants were prepared in the U20S osteosarcoma cell line by performing a 3 vector transfection using LipofectAmine (GIBCO) at a DNA ratio of 5:5:1 between pTet-Id2:ptet-TAk:pcDNA-3 and selected in the presence of DME/10%FBS/G418 (0.6 mg/ml)/tetracycline (5 μg/ml) media was changed after 2 days. […] To show expression of Id2, cells were trypsinized and plated with varying concentrations of tetracycline (0-1000 ng/ml).
# To determine the extent of apoptosis in U20S cells transfected with pTet-Id2 DNA, cells were plated at a density of 5×10^5 cells per p100 plate and allowed to adhere for 24 hours in the presence of 1000 ng/ml tetracycline (tet). Then the media was changed to either 0 or 1000 ng/ml tet after 2 washes with PBS. The cells were maintained in the culture for 4 days before harvesting by trypsinization (floating cells were also harvested). […] DNA content was determined by flow cytometry on a FACSort (53).
# Bax = test: Immunoblot of apoptosis regulators in 32D.3 transfectants; type: cell-based, mouse
# Experimental: Expression of Id genes and immunoblot analysis. Id gene expression was induced by addition of 1 μM dexamethasone (Sigma) for 16 hours. Cells were then collected at the indicated times by centrifugation, washed in PBS, and whole cell lysates were prepared by resuspending the pellets in RIPA buffer (150 mM NaCl, 1 mM EDTA, 1% Nonidet P-40, 1% sodium deoxycholate, 20 mM Tris-HCl pH 7.2) containing protease inhibitors (1 μM phenylmethyl-sulfonylfluoride, 0.01 μM benzamidine HCl, 1 μg/ml o-phenanthroline, and 0.5 μg/ml each of antipain, leupeptin, pepstatin A, and aprotinin). The lysates were then clarified by centrifugation and examined by 12.5% SDS-PAGE. Western blot analysis was carried out to detect expression of Id proteins using the sc-489 rabbit polyclonal antibody against Id2 (Santa Cruz Biotechnology, Santa Cruz, Calif.) and rabbit polyclonal antibodies generated against bacterially expressed Id1 or Id3 (C. Hernandez, unpublished). The expression of Bax proteins was monitored using a rabbit anti-Bax polyclonal sc-930 (Santa Cruz Biotechnology, Santa Cruz, Calif.). Briefly, blots were washed with blocking buffer [4% milk powder and 0.2% Tween-20 in phosphate-buffered saline (PBS)], incubated with anti-Id2 or Bax antibodies (used at a 1:1000 dilution in blocking buffer), washed, and incubated with peroxidase-conjugated […]. […]
Molecule,extent of apoptosis by the TUNEL assay (32D.3 myeloid cells [1]),"subdiploid population, indicative of apoptotic DNA fragmentation (32D.3 myeloid cells [2])",rates of cell death (32D.3 myeloid cells [3]),"effects on viability (32D.3 myeloid cells [3]; presence of IL-3, 16 hours of treatment with dex)",apoptotic cells with subdiploid DNA content (U20S osteosarcoma cells),"levels of other known regulators including Bad, Bcl-2, Bcl-XL and Bcl-XS (Bax; cultured in IL-3)","Bax levels (Bax; cultured in IL-3, relative to vector transfected cells)"
B1,significantly elevated apoptosis; also recorded: concentration-dependent; also recorded: expected enhancement in apoptosis,significantly augmented,dramatically accelerated rates of death,only minor effects on viability,a large proportion of apoptotic cells with subdiploid DNA content,no changes,elevated
B2,–,–,without effect,–,–,–,–
